“And” between values parts separate entries of the source, which are not always exact repeats. Identical values can stand only once.
B1: apo-LmCld (heme-free chlorite dismutase-like protein from Listeria monocytogenes) (natural protein, UniProt Q8Y5F1 1-251, looked up)
chain: MNEAVKTLDGWFCLHDFRSIDWAAWRELNPGNQELMLNELSHFLSDMEITKNIGEGEHTIYSILGQKADLVFFTLRDSLEALNEVENRFNKLAIADYLLPTYSYISVVELSNYLASHMAGGDDPYQNKGVRARLYPALPPKKHICFYPMSKKRDGADNWYMLPMEERQQLIRDHGLIGRSYAGKVQQIIGGSIGFDDYEWGVTLFSDDALEFKRIVTEMRFDEASARYAEFGSFFIGNLLLSEQLSKLFTI
notes: Chlorite dismutase-like protein (HemQ) of Listeria monocytogenes; subunit of about 30 kDa; Heme-free form; The template was strain L028, the ORF annotation is of strain EGD-e; The tag is TEV-cleavable; also called HemQ; Cld-like protein
B2: holo-LmCld (heme b-bound chlorite dismutase-like protein from Listeria monocytogenes) (natural protein, UniProt Q8Y5F1 1-251, looked up)
chain: MNEAVKTLDGWFCLHDFRSIDWAAWRELNPGNQELMLNELSHFLSDMEITKNIGEGEHTIYSILGQKADLVFFTLRDSLEALNEVENRFNKLAIADYLLPTYSYISVVELSNYLASHMAGGDDPYQNKGVRARLYPALPPKKHICFYPMSKKRDGADNWYMLPMEERQQLIRDHGLIGRSYAGKVQQIIGGSIGFDDYEWGVTLFSDDALEFKRIVTEMRFDEASARYAEFGSFFIGNLLLSEQLSKLFTI
notes: Chlorite dismutase-like protein (HemQ) of Listeria monocytogenes; subunit of about 30 kDa; heme is partly lost in the high-salt running buffer of the SEC-MALS; also called HemQ; Cld-like protein
B3: apo-LmCld, StrepII-tag cleaved off (as crystallized) (natural protein, Listeria monocytogenes, UniProt Q8Y5F1 1-251, looked up)
chain: MNEAVKTLDGWFCLHDFRSIDWAAWRELNPGNQELMLNELSHFLSDMEITKNIGEGEHTIYSILGQKADLVFFTLRDSLEALNEVENRFNKLAIADYLLPTYSYISVVELSNYLASHMAGGDDPYQNKGVRARLYPALPPKKHICFYPMSKKRDGADNWYMLPMEERQQLIRDHGLIGRSYAGKVQQIIGGSIGFDDYEWGVTLFSDDALEFKRIVTEMRFDEASARYAEFGSFFIGNLLLSEQLSKLFTI
notes: Chlorite dismutase-like protein (HemQ) of Listeria monocytogenes; Heme-free; homopentamer in the crystal lattice; also called HemQ; LmCld (4WWS); source: E. coli Tuner (DE3), purified (StrepTrap, TEV cleavage, Superdex 200); not shown: StrepII, N-terminal, cleaved

Columns and labels:
[1] = target: T1, LmCld (chlorite dismutase-like protein, HemQ) (Listeria monocytogenes, UniProt Q8Y5F1); assay: electronic circular dichroism titration, Soret minimum […] nm, Hill fit; assay type: binding
T1 construct: gene chdC; N-terminal StrepII-tag, TEV-cleavable (cleaved for crystallization); recombinant in E. coli Tuner (DE3); subunit approx. 30 kDa; hexamer approx. 180 kDa in solution, pentamer in crystal
T1 sequence (Q8Y5F1 1-251): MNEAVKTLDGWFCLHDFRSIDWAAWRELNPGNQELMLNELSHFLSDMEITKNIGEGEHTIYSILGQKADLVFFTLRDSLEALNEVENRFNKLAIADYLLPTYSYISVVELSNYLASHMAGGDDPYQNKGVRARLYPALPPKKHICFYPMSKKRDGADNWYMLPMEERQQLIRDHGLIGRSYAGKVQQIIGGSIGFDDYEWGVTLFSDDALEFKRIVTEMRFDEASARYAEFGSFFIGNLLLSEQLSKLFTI

[2] = target: the molecule itself; assay: SEC-MALS; Superdex 200 10/300 GL, Dulbecco PBS plus 200 mM NaCl, 0.75 mL per min, 50 ug protein injected
[3] = target: the molecule itself; assay: crystal structure; apo-LmCld, 0.1 M Tris pH 8.5, 0.6 M potassium sodium tartrate, 8% glycerol; 2.0 A, space group P 1 21 1

Row | Molecule | stoichiometry N [2] | further results
1 | C=CC1=C(C)C2=Cc3c(C=C)c(C)c4[n]3[Fe]([Cl])[n]3c(c(C)c(CCC(=O)O)c3=CC3=NC(=C4)C(C)=C3CCC(=O)O)=CC1=N2 [hemin] | – | Kd [1]: 7.2 ± 0.5 µM
2 | B1 | 6 subunits and 12 subunits | –
3 | B2 | 6 subunits and 12 subunits | –
4 | B3 | – | stoichiometry N [3]: 5 subunits
